Reference: patent US20230250188A1 (NATIONAL UNIVERSITY CORPORATION KOCHI UNIVERSITY, published 2023)

Columns and labels:
[1] = biological target: T1, human GPC1 on the surface of GPC1-positive cancer cells (TE8, TE14, BxPC-3) (human, UniProt P35052 24-530); assay: cell-based or functional assay
T1 sequence: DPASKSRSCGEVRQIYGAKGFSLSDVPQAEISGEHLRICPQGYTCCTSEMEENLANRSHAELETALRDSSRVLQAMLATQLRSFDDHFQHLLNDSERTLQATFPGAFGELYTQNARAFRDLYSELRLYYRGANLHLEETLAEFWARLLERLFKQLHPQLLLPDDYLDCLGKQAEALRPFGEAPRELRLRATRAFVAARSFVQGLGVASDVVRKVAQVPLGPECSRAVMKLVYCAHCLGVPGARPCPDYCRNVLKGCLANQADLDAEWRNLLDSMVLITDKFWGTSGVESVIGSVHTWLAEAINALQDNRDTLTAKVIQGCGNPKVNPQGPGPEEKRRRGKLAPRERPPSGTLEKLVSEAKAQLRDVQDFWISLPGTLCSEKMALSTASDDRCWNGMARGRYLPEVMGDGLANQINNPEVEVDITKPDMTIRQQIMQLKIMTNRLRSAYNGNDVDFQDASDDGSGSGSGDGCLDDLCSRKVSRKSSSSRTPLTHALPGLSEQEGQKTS

[2] = biological target: T1, human GPC1 on the surface of …; assay: flow cytometry on TE8 cells, antibody titration, FITC anti-human IgG as secondary antibody
Procedure: (§1) The measurement was performed with FACS CantoII (BD) using the human/mouse chimeric anti-GPC1 antibody (clone 01a033) and the humanized anti-GPC1 antibody (clone T2) as primary antibodies at various concentrations and FITC labeled anti-human-IgG-FITC (Jackson Immuno Research, Catalog No. 109-095-098) as a secondary antibody, and the measurement data were analyzed using BD FACS Diva Software (BD).

[3] = biological target: T1, human GPC1 on the surface of …; assay: flow cytometry on BxPC3 cells, antibody titration, FITC anti-human IgG as secondary antibody
Procedure: as §1, with “In the FACS analysis using the antibody, cells of human pancreatic cancer cell line (BxPC-3) were used as GPC1-positive cells. The” for “The”, “the” for “the human/mouse chimeric anti-GPC1 antibody (clone 01a033) and the”, “T2) and the humanized GPC1-ADC (MMAE)” for “T2)”
The influence of conjugation of a payload with the humanized anti-GPC1 antibody (T2) on the antigen affinity was evaluated by analyzing the antibody concentration-dependent binding ability with FACS using GPC1 expression-positive BxPC3 cells.

[4] = biological target: T2, recombinant human GPC1 protein (R&D Systems) (human, UniProt P35052 24-530); assay: SPR (Biacore 8K); antibody captured by anti-human IgG (Fc) on a CM5 chip, recombinant human GPC1 flowed over
T2 construct: Bought recombinant protein (R&D Systems); also called human GPC-1 antigen; Glypican-1
T2 sequence: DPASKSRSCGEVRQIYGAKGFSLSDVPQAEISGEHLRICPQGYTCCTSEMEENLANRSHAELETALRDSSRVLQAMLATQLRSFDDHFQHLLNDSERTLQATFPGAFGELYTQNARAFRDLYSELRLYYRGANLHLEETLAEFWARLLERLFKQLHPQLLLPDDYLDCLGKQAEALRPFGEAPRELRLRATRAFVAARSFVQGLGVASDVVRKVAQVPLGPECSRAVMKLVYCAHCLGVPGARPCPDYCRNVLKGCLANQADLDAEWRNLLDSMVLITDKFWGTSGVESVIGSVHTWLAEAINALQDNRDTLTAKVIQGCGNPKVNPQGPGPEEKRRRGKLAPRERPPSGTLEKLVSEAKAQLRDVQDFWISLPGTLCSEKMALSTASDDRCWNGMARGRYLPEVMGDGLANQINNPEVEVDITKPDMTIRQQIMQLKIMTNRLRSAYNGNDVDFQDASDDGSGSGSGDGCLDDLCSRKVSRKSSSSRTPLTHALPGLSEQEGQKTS
Procedure: The mouse anti-human-GPC1 monoclonal antibody was humanized (subclass: IgG4), and the obtained twenty clones (T1, T2, T3, T7, T8, T10, T11, T22, T26, T28, T29, T31, T32, T33, T34, T36, T43, T56, T57, T59) were prepared. An anti-human IgG (Fc) was immobilized on an sCM5 sensor chip (GE Healthcare) using Human antibody capture kit (GE Healthcare), and the affinity of each of these clones to a recombinant human GPC1 protein (R&D Systems) was measured using Biacore (registered trademark) 8K (GE Healthcare).

[5] = biological target: T1, human GPC1 on the surface of …; assay: cell-based or functional assay; remark: listed apart in the source
[6] = biological target: T1, human GPC1 on the surface of …; assay: cell-based or functional assay; remark: listed apart in the source
[7] = biological target: T3, MC38-mGPC1; assay: cell-based or functional assay
T3 mouse Glypican-1: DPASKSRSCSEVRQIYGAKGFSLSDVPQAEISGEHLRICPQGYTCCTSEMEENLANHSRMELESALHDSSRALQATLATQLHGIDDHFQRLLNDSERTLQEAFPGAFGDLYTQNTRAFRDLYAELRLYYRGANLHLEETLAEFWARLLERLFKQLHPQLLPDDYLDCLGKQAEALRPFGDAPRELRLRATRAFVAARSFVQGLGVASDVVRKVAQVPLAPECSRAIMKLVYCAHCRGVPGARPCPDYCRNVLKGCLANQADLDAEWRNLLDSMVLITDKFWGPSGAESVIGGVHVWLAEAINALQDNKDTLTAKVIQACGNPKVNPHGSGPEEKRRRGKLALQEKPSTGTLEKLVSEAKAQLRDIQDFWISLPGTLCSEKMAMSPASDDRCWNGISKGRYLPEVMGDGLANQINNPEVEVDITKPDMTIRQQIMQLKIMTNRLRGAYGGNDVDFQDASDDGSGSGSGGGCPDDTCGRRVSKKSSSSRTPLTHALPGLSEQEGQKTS

[8] = biological target: T2, recombinant human GPC1 protein (R&D …); assay: SPR (Biacore 8K); antibody captured by anti-mouse-Fc antibody on the chip, human GPC-1 flowed over
Procedure: The binding affinity of the mouse antibody to human GPC-1 was measured through surface plasmon resonance technique (Biacore (registered trademark) 8K). An anti-mouse-Fc antibody was immobilized on a chip, and the mouse antibody (01a033) was flowed thereon and allowed to bind thereto. After washing, the human GPC-1 was flowed thereon, and the binding constant (Ka) and the dissociation constant (Kd) were measured.

[9] = biological target: T3, MC38-mGPC1; assay: flow cytometry on MC38-mGPC1 cells (the sheet names clone 01a033 and mIgG2a; paragraph 327 names clone T2 with FITC anti-human IgG)

B1: humanized anti-GPC1 antibody (clone T2) (antibody, human IgG4 S228P, kappa, V domains shown)
VH: QVQLVQSGAEVKKPGASVKVSCKASGYTFTGYYMHWVRQAPGQGLEWMGEINPSTGDTTYNQKFKARVTMTRDTSTSTVYMELSSLRSEDTAVYYCAREKRDDGVFAYWGQGTLVTVSS
VL: DIVMTQSPSFLSASVGDRVTITCRASQGISSYLVWYQQKPGKPPKLLIYSASVLQSGVPSRFSGRGYGTDFTLTISSLQPEDFATYYCQQSFSIPPVTFGGGTKVEIKR
notes: IgG; also called humanized anti-GPC1 antibody (T2); unlabeled antibody
- IC50 of cytotoxicity on TE14 cells (ATP cell viability, 144 h) with MMAF-linked anti-human-IgG Fab as secondary antibody [1]: 0.0361 nM
- Kd [2]: 1.89 nM
- Kd [3]: 0.529 nM
- Kd [4]: 5.2 nM
- koff [4]: 0.00125 s⁻¹
- kon [4]: 240000 M⁻¹ s⁻¹

B2: human/mouse chimeric anti-GPC1 antibody (clone 01a033) (antibody, human IgG4 S228P, kappa, V domains shown)
VH: QVQLKQSGPELVKPGASVKISCKASGYSFTGYYMHWVKQSPEKSLEWIGEINPSTGDTTYNQKFKAKATLTVDKSSSTAYMQLKSLTSEDSAVYYCAREKRDDGVFAYWGQGTLVTVSS
VL: DIVMSQSPKSMSMSVGERVALSCKASENVGTYVSWYQQKPEQSPKLLIYGASNRYTGVPDRFTGSGSATDFTLTISSVQAEDLADYYCGQSYSYPLTFGAGTKLELKR
notes: also called chimeric mouse antibody (01a033); anti-GPC-1 chimeric antibody (01a033)
- IC50 of cytotoxicity on TE14 cells (ATP cell viability, 144 h) with MMAF-linked anti-human-IgG Fab as secondary antibody [1]: 0.071 nM
- Kd [2]: 2.38 nM
- Kd [4]: 10.2 nM
- koff [4]: 0.00309 s⁻¹
- kon [4]: 302000 M⁻¹ s⁻¹

B3: humanized GPC1-ADC (MMAE) (antibody, V domains shown)
VH: QVQLVQSGAEVKKPGASVKVSCKASGYTFTGYYMHWVRQAPGQGLEWMGEINPSTGDTTYNQKFKARVTMTRDTSTSTVYMELSSLRSEDTAVYYCAREKRDDGVFAYWGQGTLVTVSS
VL: DIVMTQSPSFLSASVGDRVTITCRASQGISSYLVWYQQKPGKPPKLLIYSASVLQSGVPSRFSGRGYGTDFTLTISSLQPEDFATYYCQQSFSIPPVTFGGGTKVEIKR
modifications: MC-vc-PAB-MMAE linked by maleimide to cysteines of the reduced interchain disulfide bonds; DAR 4.0 for the whole antibody
notes: also called humanized anti-GPC1-ADC; humanized anti-GPC1-ADC (MMAE)
- IC50 of growth inhibition of Detroit562 cells (in-vitro ADC assay, CellTiter-Glo, 144 h) [5]: 0.724 nM
- IC50 of growth inhibition of FaDu cells (in-vitro ADC assay, CellTiter-Glo, 144 h) [5]: 0.3 nM
- IC50 of growth inhibition of HeLa cells (in-vitro ADC assay, CellTiter-Glo, 144 h) [5]: 0.259 nM
- IC50 of growth inhibition of Ho-1-u-1 cells (in-vitro ADC assay, CellTiter-Glo, 144 h) [6]: 0.329 nM
- IC50 of growth inhibition of KON cells (in-vitro ADC assay, CellTiter-Glo, 144 h) [6]: 0.153 nM
- IC50 of growth inhibition of MC38-mGPC1 cells (in-vitro ADC assay) [7]: 2.29 nM
- Kd [3]: 0.57 nM

B4: anti-GPC-1 mouse monoclonal antibody 01a033 (antibody, V domains shown)
VH: QVQLKQSGPELVKPGASVKISCKASGYSFTGYYMHWVKQSPEKSLEWIGEINPSTGDTTYNQKFKAKATLTVDKSSSTAYMQLKSLTSEDSAVYYCAREKRDDGVFAYWGQGTLVTVSS
VL: DIVMSQSPKSMSMSVGERVALSCKASENVGTYVSWYQQKPEQSPKLLIYGASNRYTGVPDRFTGSGSATDFTLTISSVQAEDLADYYCGQSYSYPLTFGAGTKLELK
notes: Mouse monoclonal antibody; also called mouse antibody (01a033); mouse anti-GPC1 antibody (clone 01a033)
- Kd [8]: 31.6 nM
- koff [8]: 0.00388 s⁻¹
- kon [8]: 123000 M⁻¹ s⁻¹
- binding result [9]: binds
